Earlier results, collected in patent US20120245117A1, “METHODS OF TREATING SQUAMOUS CELL LUNG CANCER WITH 4-IODO-3-NITROBENZAMIDE IN COMBINATION WITH GEMCITABINE AND CARBOPLATIN” (priority 2011, published 2012).

Tested on: SqCLC
Conditions: SqCLC patients; combination with carboplatin/paclitaxel; cited from earlier work

B1: CP-751,871: an anti-IGF-1R monoclonal antibody (antibody, chains of the INN, looked up)
heavy: EVQLLESGGGLVQPGGSLRLSCTASGFTFSSYAMNWVRQAPGKGLEWVSAISGSGGTTFYADSVKGRFTISRDNSRTTLYLQMNSLRAEDTAVYYCAKDLGWSDSYYYYYGMDVWGQGTTVTVSSASTKGPSVFPLAPCSRSTSESTAALGCLVKDYFPEPVTVSWNSGALTSGVHTFPAVLQSSGLYSLSSVVTVPSSNFGTQTYTCNVDHKPSNTKVDKTVERKCCVECPPCPAPPVAGPSVFLFPPKPKDTLMISRTPEVTCVVVDVSHEDPEVQFNWYVDGVEVHNAKTKPREEQFNSTFRVVSVLTVVHQDWLNGKEYKCKVSNKGLPAPIEKTISKTKGQPREPQVYTLPPSREEMTKNQVSLTCLVKGFYPSDIAVEWESNGQPENNYKTTPPMLDSDGSFFLYSKLTVDKSRWQQGNVFSCSVMHEALHNHYTQKSLSLSPG
light: DIQMTQFPSSLSASVGDRVTITCRASQGIRNDLGWYQQKPGKAPKRLIYAASRLHRGVPSRFSGSGSGTEFTLTISSLQPEDFATYYCLQHNSYPCSFGQGTKLEIKRTVAAPSVFIFPPSDEQLKSGTASVVCLLNNFYPREAKVQWKVDNALQSGNSQESVTEQDSKDSTYSLSSTLTLSKADYEKHKVYACEVTHQGLSSPVTKSFNRGEC
Q: Which response rate does the source give for B1 here?
A: ~78%

Q: What about the toxicity of the same molecule?
A: strong toxicity
